Reference: US20110129481A1

Tests used:
[1] = biological target: human c-Met/Fc fusion protein (R&D Systems, Inc.) (human) (UniProt P08581); assay: ELISA, plate-bound c-Met/Fc (2 ug/ml), anti-mouse IgG-HRP
[2] = biological target: mouse c-Met/Fc fusion protein (R&D Systems, Inc.) (mouse) (UniProt P16056); assay: as above
UniProt P16056, sequence (P16056 25-931 limits assumed): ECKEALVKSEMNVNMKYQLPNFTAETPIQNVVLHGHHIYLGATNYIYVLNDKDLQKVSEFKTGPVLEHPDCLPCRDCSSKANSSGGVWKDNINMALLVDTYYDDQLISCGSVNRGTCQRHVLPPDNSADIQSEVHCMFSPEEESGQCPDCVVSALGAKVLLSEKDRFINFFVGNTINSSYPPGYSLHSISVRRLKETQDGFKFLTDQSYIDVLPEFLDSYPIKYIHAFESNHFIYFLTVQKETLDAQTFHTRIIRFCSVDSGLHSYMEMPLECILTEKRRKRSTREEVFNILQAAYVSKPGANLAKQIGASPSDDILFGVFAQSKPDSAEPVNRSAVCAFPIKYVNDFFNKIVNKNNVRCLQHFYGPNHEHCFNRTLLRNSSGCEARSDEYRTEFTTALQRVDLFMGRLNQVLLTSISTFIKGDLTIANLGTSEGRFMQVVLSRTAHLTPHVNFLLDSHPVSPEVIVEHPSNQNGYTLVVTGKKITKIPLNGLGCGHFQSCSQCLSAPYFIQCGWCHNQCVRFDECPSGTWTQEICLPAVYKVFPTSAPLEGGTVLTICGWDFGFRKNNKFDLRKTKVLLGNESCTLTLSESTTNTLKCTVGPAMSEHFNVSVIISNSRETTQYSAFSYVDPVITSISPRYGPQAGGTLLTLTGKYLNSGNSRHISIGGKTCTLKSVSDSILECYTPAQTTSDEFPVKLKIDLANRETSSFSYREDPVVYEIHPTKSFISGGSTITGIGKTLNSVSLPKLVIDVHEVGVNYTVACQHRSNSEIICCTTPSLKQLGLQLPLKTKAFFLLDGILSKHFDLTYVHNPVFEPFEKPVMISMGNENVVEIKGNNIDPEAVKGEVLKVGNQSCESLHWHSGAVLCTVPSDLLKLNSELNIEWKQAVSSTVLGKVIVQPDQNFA

UniProt P08581, sequence (P08581 25-932 limits assumed): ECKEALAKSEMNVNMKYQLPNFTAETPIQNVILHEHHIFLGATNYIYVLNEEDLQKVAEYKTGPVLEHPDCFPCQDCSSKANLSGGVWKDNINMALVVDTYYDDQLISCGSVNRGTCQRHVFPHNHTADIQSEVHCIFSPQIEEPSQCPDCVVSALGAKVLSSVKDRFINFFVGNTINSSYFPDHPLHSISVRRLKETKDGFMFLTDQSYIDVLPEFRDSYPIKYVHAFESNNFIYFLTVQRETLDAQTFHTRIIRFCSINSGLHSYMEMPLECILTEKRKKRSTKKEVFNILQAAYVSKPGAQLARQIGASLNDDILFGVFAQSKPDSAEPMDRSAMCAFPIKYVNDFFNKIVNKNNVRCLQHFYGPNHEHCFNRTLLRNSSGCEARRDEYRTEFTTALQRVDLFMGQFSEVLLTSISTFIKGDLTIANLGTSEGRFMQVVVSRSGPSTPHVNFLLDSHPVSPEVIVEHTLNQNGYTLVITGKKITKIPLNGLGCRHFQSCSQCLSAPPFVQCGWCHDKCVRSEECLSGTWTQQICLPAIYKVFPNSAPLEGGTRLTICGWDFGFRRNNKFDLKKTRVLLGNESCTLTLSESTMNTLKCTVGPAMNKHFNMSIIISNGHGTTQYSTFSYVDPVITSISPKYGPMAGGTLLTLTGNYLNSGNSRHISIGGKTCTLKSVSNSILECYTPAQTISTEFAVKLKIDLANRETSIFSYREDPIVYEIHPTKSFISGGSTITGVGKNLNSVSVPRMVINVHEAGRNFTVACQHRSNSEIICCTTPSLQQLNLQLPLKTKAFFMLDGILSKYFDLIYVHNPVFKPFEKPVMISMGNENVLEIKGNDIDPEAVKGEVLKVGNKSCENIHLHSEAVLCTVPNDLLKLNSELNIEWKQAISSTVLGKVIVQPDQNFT

## monoclonal antibody against human c-Met, 5D5 (Genetech)
[1]
  absorption at 450 nm: 0.373
[2]
  absorption at 450 nm: 0.113
